Reference: doi:10.1101/2025.10.11.681810

What was measured:
[1] = target: recombinant bank vole (BV) PrP(90–231), I109 natural polymorph (bank vole) (UniProt Q8VHV5); assay: SEC
[2] = target: recombinant bank vole (BV) PrP(90–231), I109 natural polymorph (bank vole) (UniProt Q8VHV5); assay: NMR diffusion

Substance: recombinant bank vole (BV) PrP(90–231), I109 natural polymorph (from UniProt Q8VHV5 90-231) (domain or fragment)
- stoichiometry N [1]: 12
- stoichiometry N [2]: 16
